Target: CD3ε on Jurkat-NFAT responder cells (UniProt P07766 23-207)
Assay: cell-based or functional assay

CD3ε on Jurkat-NFAT responder cells, sequence (P07766 23-207): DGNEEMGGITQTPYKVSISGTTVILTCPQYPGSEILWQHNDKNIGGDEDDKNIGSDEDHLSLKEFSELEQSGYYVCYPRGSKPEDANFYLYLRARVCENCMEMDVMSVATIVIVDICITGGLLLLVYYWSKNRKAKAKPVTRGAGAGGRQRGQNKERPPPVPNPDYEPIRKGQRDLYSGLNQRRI

EC50 of NFAT-luciferase luminescence (Jurkat-NFAT responder cells co-incubated with SK-BR-3 target cells); sample: BEAT®3 High pH T2h: 0.0065 µg/ml | EC50 of NFAT-luciferase luminescence (Jurkat-NFAT responder cells co-incubated with SK-BR-3 target cells); sample: BEAT®3 High pH T4h: 0.0074 µg/ml
B1: BEAT®3 (bispecific antibody, human IgG1, kappa, L234A L235A)
chain 1: EVQLVESGGGLVQPGGSLRLSCAASGFTFNTYAMNWVRQAPGKGLEWVARIRSKYNNYATYYADSVKSRFTISRDDSKNTLYLQMNSLRAEDTAVYYCVRHGNFGNSYVSYFAYWGQGTTVTVSSGGGGSGGGGSGGGGSEIVVTQSPATLSVSPGERATLSCRSSTGAVTESNYANWVQEKPGQAFRGLIGGANKRAPGVPARFSGSLSGDEATLTISSLQSEDFAVYYCALFYSNTWVFGQGTKLEIKGGGGTQVQLQESGPGLVKPSETLSLTCTVSGGSVSSGDYYWTWIRQSPGKGLEWIGHIYYSGNTNYNPSLKSRLTISIDTSKTQFSLKLSSVTAADTAIYYCVRDRVTGAFDIWGQGTMVTVSSASTKGPSVFPLAPSSKSTSGGTAALGCLVKDYFPEPVTVSWNSGALTSGVHTFPAVLQSSGLYSLSSVVTVPSSSLGTQTYICNVNHKPSNTKVDKKVEPKSCDKTHTCPPCPAPEAAGGPSVFLFPPKPKDTLMISRTPEVTCVVVDVSHEDPEVQFKWYVDGVEVHNAKTKPREEQYNSTFRVVSVLTVLHQDWLNGKEYKCKVSNKALPAPIEKTISKTKGQPREPAVYTLPPSREEMTKNQVKLVCLVTGFYPSDIAVEWESSGQPENNYYTTPPMLDSDGSFSLVSWLNVDKSRWQQGNIFSCSVMHEALHNRFTQKSLSLSPG
chain 2: not shown
chain 3: DKTHTCPPCPAPEAAGGPSVFLFPPKPKDTLMISRTPEVTCVVVDVSHEDPEVKFNWYVDGVEVHNAKTKPREEQYNSTYRVVSVLTVLHQDWLNGKEYKCKVSNKALPAPIEKTISKAKGQPREPEVATFPPSRDELTKNQVTLVCLVTGFYPSDIAVEWESNGQPENNYKTDPPLLESDGSFALSSRLRVDKSRWQQGNVFSCSVMHEALHNHYTQKSLSLSPG

From patent publication US20200369747A1 (ICHNOS SCIENCES, published 2020)
